Reference: publication PMC3820802, “Activin Signaling Targeted by Insulin/dFOXO Regulates Aging and Muscle Proteostasis in Drosophila”

T1: Smox MH1 DNA-binding domain (UniProt O96660 1-140)
T1 sequence: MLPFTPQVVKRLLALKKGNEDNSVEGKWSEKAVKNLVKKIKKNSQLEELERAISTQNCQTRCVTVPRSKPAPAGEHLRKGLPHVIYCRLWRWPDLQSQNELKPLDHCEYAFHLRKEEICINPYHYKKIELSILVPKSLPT


Columns and labels:
[1] = biological target: T1, Smox MH1 DNA-binding domain; assay: EMSA; blocked by unlabeled wild-type probe; 10 mM Tris-HCl pH 7.5, 150 mM KCl, 5 mM MgCl2, 10 ng/uL poly(dI-dC), ~50 ng probe, 20 ug protein in 10 uL, room temperature 20 min; 0.8% agarose, 0.5x TBE; conditions: protein: recombinant; tags: His6-HaloTag (pFN29K vector; purified with HaloTag kit, tag retention: called Halo-tagged in legend); (only one strand seen in the material)
[2] = biological target: T1, Smox MH1 DNA-binding domain; assay: competition; EMSA, cold competitor vs labeled N1; did not compete; 10 mM Tris-HCl pH 7.5, 150 mM KCl, 5 mM MgCl2, 10 ng/uL poly(dI-dC), ~50 ng probe, 20 ug protein in 10 uL, room temperature 20 min; 0.8% agarose, 0.5x TBE; conditions: protein: recombinant; tags: His6-HaloTag (pFN29K vector; purified with HaloTag kit, tag retention: called Halo-tagged in legend); (only one strand seen in the material)
[3] = biological target: T1, Smox MH1 DNA-binding domain; assay: EMSA; 10 mM Tris-HCl pH 7.5, 150 mM KCl, 5 mM MgCl2, 10 ng/uL poly(dI-dC), ~50 ng probe, 20 ug protein in 10 uL, room temperature 20 min; 0.8% agarose, 0.5x TBE; conditions: protein: recombinant; tags: His6-HaloTag (pFN29K vector; purified with HaloTag kit, tag retention: called Halo-tagged in legend); label: 3' biotin; (only one strand seen in the material)

| Binder | binding result [2] | also measured |
| --- | --- | --- |
| Atg8a probe (dsDNA) DNA 1: CATATTAGACAGACACCATT DNA 2: AATGGTGTCTGTCTAATATG | – | binding result [1]: binds |
| Atg8a-Mut3 (dsDNA) DNA 1: CATATTAGATAGATACCATT DNA 2: AATGGTATCTATCTAATATG | no binding | – |
| Atg8a-Mut2 (dsDNA) DNA 1: CATATTAGCTACATACCATT DNA 2: AATGGTATGTAGCTAATATG | no binding | – |
| SBE (vertebrate Smad binding element) (dsDNA) DNA 1: GTATGTCTAGACTGAA DNA 2: TTCAGTCTAGACATAC | – | binding result [3]: binds |
